Several values for one entry are separate records, joined by “and”; a condition that tells them apart may be missing. Identical values can stand only once.
T1: Raji B cell line (Homo sapiens, UniProt P15391)
T1 construct: the CD19 protein is expressed on the surface of tumor cell lines of B cell origin; host or cells: Raji (human Burkitt's lymphoma B cell line)
T1 sequence (P15391 20-556): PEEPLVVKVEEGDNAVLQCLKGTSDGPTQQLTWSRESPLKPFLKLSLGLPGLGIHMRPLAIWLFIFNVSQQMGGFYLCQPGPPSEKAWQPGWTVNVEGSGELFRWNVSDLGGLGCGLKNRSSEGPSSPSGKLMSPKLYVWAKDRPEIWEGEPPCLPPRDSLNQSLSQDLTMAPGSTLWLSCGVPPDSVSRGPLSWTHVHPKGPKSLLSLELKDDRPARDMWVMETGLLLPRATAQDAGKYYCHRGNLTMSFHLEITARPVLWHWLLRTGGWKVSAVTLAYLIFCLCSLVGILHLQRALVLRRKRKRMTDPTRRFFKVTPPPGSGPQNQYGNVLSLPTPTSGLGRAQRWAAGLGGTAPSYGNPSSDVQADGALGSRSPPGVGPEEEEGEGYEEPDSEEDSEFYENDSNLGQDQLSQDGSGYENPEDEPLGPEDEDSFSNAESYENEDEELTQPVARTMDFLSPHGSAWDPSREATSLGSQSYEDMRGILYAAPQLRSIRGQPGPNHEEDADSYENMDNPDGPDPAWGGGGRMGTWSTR


Key:
[1] = biological target: T1, Raji B cell line; experiment: Flow cytometry binding to Raji cells
Description: Binding of the CD19 HuMAbs by flow cytometry to the B cell tumor lines Raji and Daudi, or to a CHO-CD19 transfected cell line was assessed. CHO cells were transfected with an expression plasmid containing the full length cDNA encoding the transmembrane form of CD19. […] A known murine anti-CD19 antibody was used as a positive control. The cells were washed and detected by either a phycoerythrin-labeled anti-human or anti-mouse secondary antibody and analyzed by flow cytometry. The results for binding to the CHO-CD19 cell line, Daudi B cell line, Raji B cell line and an expanded binding set against the Raji B cell line are shown in FIGS. 25A, 25B, 25C and 25D, respectively. […] All results are shown as measured by the geometric mean fluorescent intensity (GMFI) of staining.

[2] = Differential scanning calorimetry; type: physicochemical; conditions: 2.3 μM in PBS pH 7.4, 30 to 95° C. at 1° C./min
Description: The thermal stability of the anti-CD19 monoclonal antibodies were compared using calorimetric analysis of their melting temperatures.
Calorimetric measurements of melting Temperatures™ were carried out on a VP-Capillary DSC differential scanning microcalorimeter platform that is combined with an autosampler (MicroCal LLC, Northampton, Mass., USA). Sample cell volume is 0.144 mL. Denaturation data on the glycosylated and deglycosylated forms of the antibodies was obtained by heating the samples, at a concentration of 2.3 μM, from 30 to 95° C. at a rate of 1° C./min. The protein samples were present in phosphate-buffered saline (PBS) at pH 7.4. The same buffer was used in the reference cell to obtain the molar heat capacity by comparison. The observed thermograms were baseline corrected and normalized data analyzed based on a 2-state model, using the software Origin v7.0.

[3] = Chemical denaturation by fluorescence spectroscopy; type: physicochemical; conditions: guanidinium hydrochloride in PBS, 24 hours, 2 μM antibody
Description: The stability of anti-CD19 monoclonal antibodies were compared by measuring the midpoint of chemical denaturation by fluorescence spectroscopy.
Fluorescence measurements of chemical denaturation were performed on a SPEX Fluorolog 3.22 with a Micromax plate reader (SPEX, Edison, N.J.). The measurements were performed on antibody samples that had been left for 24 hours to equilibrate in 16 different concentrations of guanidinium hydrochloride in PBS buffer. The measurements were made in black, low volume, non-binding surface 384-well plates (Corning, Acton, Mass.) and required 2 μM of antibody in a well volume of 12 μL Fluorescence was excited at 280 nm and the emission spectra were measured between 300 and 400 nm. The scan speed was 1 second per nm and slits were set to 5 nm bandpass. A buffer blank was performed using PBS and automatically subtracted from the data.

[4] = Capillary isoelectric focusing; type: physicochemical; conditions: capillary isoelectric focusing kit assay; listed as fucosylated 21D4a

Row | Molecule | binding by flow cytometry (GMFI) [1] | Thermo Stability Tm1 [2] | Unfolding Midpoint [3] | observed pI values [4] | Aggregation Peak [3]
1 | 21D4a: human monoclonal anti-CD19 antibody, VH SEQ ID NO: 1 and VL SEQ ID NO: 9 (antibody, listed as Homo sapiens, V domains shown) VH: EVQLVQSGAEVKKPGESLKISCKGSGYSFSSSWIGWVRQMPGKGLEWMGIIYPDDSDTRYSPSFQGQVTISADKSIRTAYLQWSSLKASDTAMYYCARHVTMIWGVIIDFWGQGTLVTVSS VL: AIQLTQSPSSLSASVGDRVTITCRASQGISSALAWYQQKPGKAPKLLIYDASSLESGVPSRFSGSGSGTDFTLTISSLQPEDFATYYCQQFNSYPFTFGPGTKVDIK | bound to the Raji B cell line | 69.7 °C | 2.97 M | 8.44 pH and 8.21 pH | –
2 | 5G7: human monoclonal anti-CD19 antibody, VH SEQ ID NO: 5 and VL SEQ ID NO: 13 (antibody, listed as Homo sapiens, V domains shown) VH: EVQLVQSGAEVKKPGESLNISCKGSGYSFTSYWIGWVRQMPGKGLEWMGIIYPGDSDTRYSPSFQGQVTISADKSINTAYLQWSSLKASDTAMYYCARGVSMIWGVIMDVWGQGTTVTVSS VL: AIQLTQSPSSLSASVGDRVTITCRASQGISSALAWYQQKPGKAPKLLIYDASSLESGVPSRFSGSGSGTDFTLTISSLQPEDFATYYCQQFNSYPWTFGQGTKVEIK | bound to the Raji B cell line | 68.5 °C | 2.91 M | – | –
3 | 5G7-N19Q: 5G7 with N-I-S sequence starting at position 19 changed to Q-I-S (antibody, V domains shown) VH: EVQLVQSGAEVKKPGESLQISCKGSGYSFTSYWIGWVRQMPGKGLEWMGIIYPGDSDTRYSPSFQGQVTISADKSINTAYLQWSSLKASDTAMYYCARGVSMIWGVIMDVWGQGTTVTVSS VL: AIQLTQSPSSLSASVGDRVTITCRASQGISSALAWYQQKPGKAPKLLIYDASSLESGVPSRFSGSGSGTDFTLTISSLQPEDFATYYCQQFNSYPWTFGQGTKVEIK | bound to the Raji B cell line | – | – | – | –
4 | 13F1: human monoclonal anti-CD19 antibody, VH SEQ ID NO: 6 and VL SEQ ID NO: 14 (antibody, listed as Homo sapiens, V domains shown) VH: EVQLVQSGAEVKKPGESLQISCKGSGYTFTNYWIAWVRQMPGKGLEWMGIIYPGDSDTRYSPSFQGQVTISADKSISTAYLQWSGLKASDTAMYYCARQGYSSGWRSYYGMGVWGQGTTVTVSS VL: AIQLTQSPSSLSASVGDRVTITCRASQGISSALAWYQQKPGKAPKLLIYDASSLESGVPSRFSGSGSGTDFTLTISSLQPEDFATYYCQQFNSYPHTFGQGTKLEIK | bound to the Raji B cell line | – | – | – | –
5 | 46E8: human monoclonal anti-CD19 antibody, VH SEQ ID NO: 7 and VL SEQ ID NO: 15 (antibody, listed as Homo sapiens, V domains shown) VH: EVQLVQSGAEVKKPGESLQISCKGSGYTFTNYWIAWVRQMPGKGLEWMGIIYPGDSDTRYSPSFQGQVTISADKSISTAYLQWSGLKASDTAMYYCARQGYSSGWRSYYGMGVWGQGTTVTVSS VL: AIQLTQSPSSLSASVGDRVTITCRASQGISSALAWYQQKPGKAPKLLIYDASSLESGVPSRFSGSGSGTDFTLTISSLQPEDFATYYCQQFNSYPHTFGQGTKLEIK | – | 66.4 °C | 2.43 M | – | 2.16 M
6 | 5G7-N19K: 5G7 with N-I-S sequence starting at position 19 changed to K-I-S (antibody, V domains shown) VH: EVQLVQSGAEVKKPGESLKISCKGSGYSFTSYWIGWVRQMPGKGLEWMGIIYPGDSDTRYSPSFQGQVTISADKSINTAYLQWSSLKASDTAMYYCARGVSMIWGVIMDVWGQGTTVTVSS VL: AIQLTQSPSSLSASVGDRVTITCRASQGISSALAWYQQKPGKAPKLLIYDASSLESGVPSRFSGSGSGTDFTLTISSLQPEDFATYYCQQFNSYPWTFGQGTKVEIK | bound to the Raji B cell line | – | – | – | –

Source: US20100104509A1, “HUMAN ANTIBODIES THAT BIND CD19 AND USES THEREOF” (Medarex, Inc., priority 2006, published 2010)
